These results are taken from publication PMC10939407 (Nucleic Acids Research, 2023).

The target in this assay is MBP-DHX15-His10 (human, UniProt O43143 1-795). Briefly: pull-down.
MBP-DHX15-His10, sequence (O43143 whole entry): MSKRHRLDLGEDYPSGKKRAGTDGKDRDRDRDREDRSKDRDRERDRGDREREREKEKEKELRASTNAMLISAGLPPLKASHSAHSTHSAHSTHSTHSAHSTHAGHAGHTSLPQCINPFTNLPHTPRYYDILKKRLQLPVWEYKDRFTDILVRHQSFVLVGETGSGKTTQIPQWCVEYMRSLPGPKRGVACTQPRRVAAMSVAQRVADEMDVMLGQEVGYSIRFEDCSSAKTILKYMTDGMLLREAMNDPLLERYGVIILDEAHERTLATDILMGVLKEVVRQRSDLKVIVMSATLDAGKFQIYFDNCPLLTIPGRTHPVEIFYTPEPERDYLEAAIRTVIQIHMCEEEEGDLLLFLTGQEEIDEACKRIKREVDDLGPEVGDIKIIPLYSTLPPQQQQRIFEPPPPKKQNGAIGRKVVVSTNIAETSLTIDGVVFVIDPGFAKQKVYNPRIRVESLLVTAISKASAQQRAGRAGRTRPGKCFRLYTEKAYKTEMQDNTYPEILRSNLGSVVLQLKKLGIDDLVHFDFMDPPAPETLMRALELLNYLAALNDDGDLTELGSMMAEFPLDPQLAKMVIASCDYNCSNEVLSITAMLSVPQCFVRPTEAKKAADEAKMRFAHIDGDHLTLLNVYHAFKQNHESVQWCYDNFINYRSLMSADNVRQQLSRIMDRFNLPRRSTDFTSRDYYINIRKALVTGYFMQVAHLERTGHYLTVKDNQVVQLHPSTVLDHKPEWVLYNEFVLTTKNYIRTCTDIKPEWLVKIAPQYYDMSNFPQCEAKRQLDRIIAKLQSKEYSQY

B1: ZZ-GPATCH4GP-His7 (G-patch domain of GPATCH4, amino acids 11 to 57) (domain or fragment)
chain: GMKFAEEQLLKHGWTQGKGLGRKENGITQALRVTLKQDTHGVGHDPA
On to B1, for which the binding result is on record as “binds”.
